Source: paper PMC5730846

What was measured:
[1] = target: recombinant Hsp90α (human) (UniProt P07900)
[2] = target: Tsc1-D-His6 labeled with Texas Red maleimide (UniProt Q92574); test: fluorescence polarisation; as a5, Hsp90α pre-incubated with 1 μM GB (ganetespib)
[3] = target: Tsc1-D-His6 labeled with Texas Red maleimide (UniProt Q92574); test: fluorescence polarisation; fluorescence anisotropy; 1 μM Texas Red-labeled Tsc1-D, Hsp90α at the indicated concentrations; 50 mM Tris pH 7.2, 150 mM NaCl, 1 mM TCEP, 4 mM MgCl2; no nucleotide or drug; single-site fit

Sequence of Tsc1-D-His6 labeled with Texas Red maleimide (Q92574 998-1164): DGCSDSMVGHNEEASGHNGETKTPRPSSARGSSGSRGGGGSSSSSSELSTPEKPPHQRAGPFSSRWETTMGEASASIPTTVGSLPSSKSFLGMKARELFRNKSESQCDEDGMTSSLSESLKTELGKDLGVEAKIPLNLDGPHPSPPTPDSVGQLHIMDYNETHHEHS
Sequence of recombinant Aha1-FLAG (O95433 whole entry): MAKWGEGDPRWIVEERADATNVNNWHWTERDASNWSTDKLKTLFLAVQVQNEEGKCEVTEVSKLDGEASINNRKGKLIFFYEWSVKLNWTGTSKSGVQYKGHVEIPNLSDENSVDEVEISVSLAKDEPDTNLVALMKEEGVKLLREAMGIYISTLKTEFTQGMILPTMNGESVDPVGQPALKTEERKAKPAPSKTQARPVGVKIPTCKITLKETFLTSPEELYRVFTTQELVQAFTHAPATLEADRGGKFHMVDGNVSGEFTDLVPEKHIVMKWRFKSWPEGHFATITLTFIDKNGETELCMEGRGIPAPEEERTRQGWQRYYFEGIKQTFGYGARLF

Row | Hsp90α ATPase activity in vitro after incubation with 1 μM Tsc1-D-His6 and addition of 1.3 μM Aha1-FLAG (percent of Hsp90α alone) [1] | Kd [2] | Kd [3] | Substance
1 | 100% | – | – | recombinant Aha1-FLAG (from UniProt O95433 1-338) (natural protein)
2 | – | > 5000 nM | 480 nM | recombinant Hsp90α (from UniProt P07900 1-732) (natural protein)
